Test results taken from doi:10.1101/2020.12.03.410779.

Target: human Retromer complex (Vps35-Vps29-Vps26A) (human) (UniProt Q96QK1)
Assay: ITC

Kd: 370 nM
Substance: TBC domain of human TBC1D5 (from UniProt Q92609 1-795) (domain or fragment)
